Reference: patent publication US20240117385A1, “ENZYMES OF LUCIFERIN BIOSYNTHESIS AND USE THEREOF” (LIGHT BIO, INC., priority 2018, published 2024)

B1: SEQ ID NO: 139: plant type III polyketide synthase (PKS) (protein, listed as Piper methysticum)
chain: MSKMVEEHWAAQRARGPATVLAIGTANPPNVLYQADYPDFYFRVTKSEHMTQLKEKFKRICDKSAIRKRHLHLTEELLEKNPNICAHMAPSLDARQDIAVVEVPKLAKEAATKAIKEWGRPKSDITHLIFCTTCGVDMPGADYQLTTLLGLRPTVRRTMLYQQGCFAGGTVLRHAKDFAENNRGARVLAVCSEFTVMNFSGPSEAHLDSMVGMALFGDGASAVIVGADPDFAIERPLFQLVSTTQTIVPDSDGAIKCHLKEVGLTLHLVKNVPDLISNNMDKILEEAFAPLGIRDWNSIFWTAHPGGAAILDQLEAKLGLNKEKLKTTRTVLREYGNMSSACVCFVLDEMRRSSLEEGKTTSGEGLEWGILLGFGPGLTVETVVLRSVPISTAN
B2: SEQ ID NO: 129: plant type III polyketide synthase (PKS) (protein, listed as Polygonum cuspidatum)
chain: MAPAVADIRKAQRAEGPATVLAIGTATPPNCVYQKDYPDYYFRVTNSDHMTDLKEKFRRMCEKSNIEKRYMYLTEEILKENPNMCSYMQTSSLDTRQDMVVSEVPRLGKEAAQKAIKEWGQPKSKITHVIMCTTSGVDMPGADYQLTKLLGLHPSVKRFMMYQQGCFAGGTVLRLAKDLAENNRGARVLVVCSEITAICFRGPTDTHPDSMVGQALFGDGSGAVIIGADPDLSIEKPIFELVWTAQTILPDSEGAIDGHLREVGLTFHLLKDVPGLISKNIEKNLTEAFSPLNVSDWNSLFWIAHPGGPAILDQVETKLGLKEEKLKATRQVLNDYGNMSSACVLFIMDEMRKKSVENGHATTGEGLEWGVLFGFGPGLTVETVVLHSVPVAN
B3: SEQ ID NO: 123: type III polyketide synthase from Arabidopsis thaliana (protein, listed as Arabidopsis thaliana)
chain: MSNSRMNGVEKLSSKSTRRVANAGKATLLALGKAFPSQVVPQENLVEGFLRDTKCDDAFIKEKLEHLCKTTTVKTRYTVLTREILAKYPELTTEGSPTIKQRLEIANEAVVEMALEASLGCIKEWGRPVEDITHIVYVSSSEIRLPGGDLYLSAKLGLRNDVNRVMLYFLGCYGGVTGLRVAKDIAENNPGSRVLLTTSETTILGFRPPNKARPYDLVGAALFGDGAAAVIIGADPRECEAPFMELHYAVQQFLPGTQNVIEGRLTEEGINFKLGRDLPQKIEENIEEFCKKLMGKAGDESMEFNDMFWAVHPGGPAILNRLETKLKLEKEKLESSRRALVDYGNVSSNTILYVMEYMRDELKKKGDAAQEWGLGLAFGPGITFEGLLIRSLTSS
B4: SEQ ID NO: 125: type III polyketide synthase from Hydrangea macrophylla (protein, listed as Hydrangea macrophylla)
chain: MATKSVAVEEMCKAQKAGGPATILAIGTAVPSNCYYQSEYPDFYFRVTKSDHLTDLKSKFKRMCERSSIKKRYMHLTEEILEENPNMCTFAAPSIDGRQDIVVKEIPKLAKEAASKAIKEWGQPKSNITHLVFCTTSGVDMPGCDYQLTRLLGLRPSIKRLMMYQQGCHAGGTGLRLAKDLAENNKGARVLVVCSEMTVINFRGPSEAHMDSLVGQSLFGDGASAVIVGSDPDLSTEHPLYQIMSASQIIVADSEGAIDGHLRQEGLTFHLRKDVPSLVSDNIENTLVEAFTPILMDSIDSIIDWNSIFWIAHPGGPAILNQVQAKVGLKEEKLRVSRHILSEYGNMSSACVFFIMDEMRKRSMEEGKGTTGEGLEWGVLFGFGPGFTVETIVLHSVPI
B5: SEQ ID NO: 119: type III polyketide synthase PKS1 from Aquilaria sinensis (protein, listed as Aquilaria sinensis)
chain: MGSQDVAGGALKGVNPGKATILALGKAFPYQLVMQEFLVDGYFKNTSCKDQELKQKLARLCKTTTVKTRYVVMSEEILNKYPELAVEGIPTLKQRLDIGNEALTEMAIEASQACIKKWGRPASEITHLVYVSSSEARLPGGDLYLAQGLGLSPRTKRVVLYFMGCSGGVAGLRVAKDIAENNPGSRVLLATSETTIVGFKPPSAHRPYDLVGVALFGDGAGAMVIGSDPLPGTESPLFELHTAIQNFLPNTEKTIDGRLTEEGISFKLARELPQIVEDHIEGFCGQLTGVIGLSHKQYNKMFWAVHPGGPAILNRVEKRLDLHPNKLDASRRALEDYGNASSNSIVYVLDYMIEETLKMKTESLEPSEWGLILAFGPGVTFEGILARNLAV
B6: SEQ ID NO: 121: type III polyketide synthase PKS2 from Aquilaria sinensis (protein, listed as Aquilaria sinensis)
chain: MSQAIADNAYRHHLKRAPTPGKATVLALGKAFPKQVIPQENLVEGYIRDTKCEDVSIKEKLERLCKTTTVKTRYTVMSKEILDNYPELVTEGSPTIRQRLEIANPAVVEMAKEASLACIKQWGRPAGDITHIVYVSSSEIRLPGGDLYLANELGLKNDINRIMLYFLGCYGGVTGLRVAKDIAENNPGSRILLTTSETTILGFRPPNKSRPYDLVGAALFGDGAAAVIIGANPEIGRESPFMELNFALQQFLPGTHGVIDGRLSEEGINFKLGRDLPQKIEDNIEDFCRKLMIKADGDLKEFNELFWAVHPGGPAILNRLESILDLKNGKLECSRRALMDYGNVSSNTIFYVMEYMREELKREGSEEWGLALAFGPGITFEGILLRSL
B7: SEQ ID NO: 137: plant type III polyketide synthase (PKS) (protein, listed as Piper methysticum)
chain: MSKTVEDRAAQRAKGPATVLAIGTATPANVVYQTDYPDYYFRVTKSEHMTKLKNKFQRMCDRSTIKKRYMVLTEELLEKNLSLCTYMEPSLDARQDILVPEVPKLGKEAADEAIAEWGRPKSEITHLIFCTTCGVDMPGADYQLTKLLGLRSSVRRTMLYQQGCFGGGTVLRLAKDLAENNAGARVLVVCSEITTAVNFRGPSDTHLDLLVGLALFGDGAAAVIVGADPDPTLERPLFQIVSGAQTILPDSEGAINGHLREVGLTIRLLKDVPGLVSMNIEKCLMEAFAPMGIHDWNSIFWIAHPGGPTILDQVEAKLGLKEEKLKSTRAVLREYGNMSSACVLFILDEVRKRSMEEGKTTTGEGFDWGVLFGFGPGFTVETVVLHSMPIPKADEGR
B8: SEQ ID NO: 127: plant type III polyketide synthase (PKS) (protein, listed as Physcomitrella patens)
chain: MSKTVEDRAAQRAKGPATVLAIGTATPANVVYQTDYPDYYFRVTKSEHMTKLKNKFQRMCDRSTIKKRYMVLTEELLEKNLSLCTYMEPSLDARQDILVPEVPKLGKEAADEAIAEWGRPKSEITHLIFCTTCGVDMPGADYQLTKLLGLRSSVRRTMLYQQGCFGGGTVLRLAKDLAENNAGARVLVVCSEITTAVNFRGPSDTHLDLLVGLALFGDGAAAVIVGADPDPTLERPLFQIVSGAQTILPDSEGAINGHLREVGLTIRLLKDVPGLVSMNIEKCLMEAFAPMGIHDWNSIFWIAHPGGPTILDQVEAKLGLKEEKLKSTRAVLREYGNMSSACVLFILDEVRKRSMEEGKTTTGEGFDWGVLFGFGPGFTVETVVLHSMPIPKADEGR
B9: SEQ ID NO: 131: plant type III polyketide synthase (PKS) (protein)
chain: MATEEMKKLATVMAIGTANPPNCYYQADFPDFYFRVTNSDHLINLKQKFKRLCENSRIEKRYLHVTEEILKENPNIAAYEATSLNVRHKMQVKGVAELGKEAALKAIKEWGQPKSKITHLIVCCSAGVDMPGADYQLTKLLDLDPSVKRFMFYHLGCYAGGTVLRLAKDIAENNKGARVLIVCSEMTTTCFRGPSETHLDSMIGQAILGDGAAAVIVGADPDLTVERPIFELVSTAQTIVPESHGAIEGHLLESGLSFHLYKTVPTLISNNIKTCLSDAFTPLNISDWNSLFWIAHPGGPAILDQVTAKVGLEKEKLKVTRQVLKDYGNMSSATVFFIMDEMRKKSLENGQATTGEGLEWGVLFGFGPGITVETVVLRSVPVIS
modifications: Amino acid sequence of the mutant L132S PKS from Rheum palmatum, optimized for expression in Nicotiana benthamiana
B10: SEQ ID NO: 133: plant type III polyketide synthase (PKS) (protein, listed as Rheum tataricum)
chain: MAPEESRHAETAVNRAATVLAIGTANPPNCYYQADFPDFYFRATNSDHLTHLKQKFKRICEKSMIEKRYLHLTEEILKENPNIASFEAPSLDVRHNIQVKEVVLLGKEAALKAINEWGQPKSKITRLIVCCIAGVDMPGADYQLTKLLGLQLSVKRFMFYHLGCYAGGTVLRLAKDIAENNKEARVLIVRSEMTPICFRGPSETHIDSMVGQAIFGDGAAAVIVGANPDLSIERPIFELISTSQTIIPESDGAIEGHLLEVGLSFQLYQTVPSLISNCIETCLSKAFTPLNISDWNSLFWIAHPGGRAILDDIEATVGLKKEKLKATRQVLNDYGNMSSACVFFIMDEMRKKSLANGQVTTGEGLKWGVLFGFGPGVTVETVVLSSVPLIT

The molecules below were run on Pichia pastoris GS115 yeast cells expressing luciferase, hispidin hydroxylase and coumarate-CoA ligase 1 (assay: Screening of PKS for hispidin-synthase activity in yeast colonies sprayed with caffeic acid). Settings: colonies sprayed with caffeic acid solution.
Assay type: cell-based
From the text: The selected nucleotide sequences for expression in Pichia pastoris yeast cells and Nicotiana benthamiana plant cells were optimized. The resulting nucleic acids were obtained synthetically and cloned into pGAPZ vector and used for verifying ability of the expressed proteins to synthesize hispidin.
For this purpose, in genome of Pichia pastoris GS115 yeast line, constitutively expressing Neonothopanus nambi luciferase and hispidin hydroxylase, obtained according to Example 1, there was additionally introduced pGAPZ plasmid, comprising gene of
Arabidopsis thaliana coumarate-CoA ligase 1 (which nucleotide and amino acid sequence are shown in SEQ ID NOs: 140, 141), also obtained by oligonucleotide synthesis. The plasmid was linearized at restriction site AvrII and used for transformation into Pichia pastoris GS115 cells.
The obtained yeast cells, constitutively expressing Neonothopanus nambi luciferase and hispidin hydroxylase and Arabidopsis thaliana coumarate-CoA ligase 1, were […] by plasmids comprising coding PKS sequences, and dispersed in Petri dishes with RDB medium, comprising 1 M of sorbitol, 2% (weight/volume) of glucose, 1.34% (weight/volume) of yeast nitrogen base (YNB), 0.005% (weight/volume) of amino acids mixture, 0.00004% (weight/volume) of biotin and 2% (weight/volume) of agar. To identify enzymes having hispidin-synthase activity, the obtained colonies were sprayed with caffeic acid solution, detecting hispidin-synthase presence in cells by occurrence of luminescence. Luminescence emitted by colonies was detected by means of IVIS Spectrum CT (Perkin Elmer, USA). Yeast line constitutively expressing luciferase, hispidin hydroxylase and coumarate-CoA ligase 1, and also wild yeast cells were used as negative control. […] Amino acid sequences coded by then are shown in SEQ ID NOs: 119, 121, 123, 125, 127, 129, 131, 133, 135, 137, 139 respectively.

For B1, which hispidin-synthase activity is on record?
The hispidin-synthase activity was “had hispidin-synthase activity”.

Which hispidin-synthase activity does the source give for B2 here?
The hispidin-synthase activity was “had hispidin-synthase activity”.

What does the source list for B3?
hispidin-synthase activity: had hispidin-synthase activity; hispidin-synthase activity, comparison among PKS: highest activity

How did the hispidin-synthase activity turn out when B4 was run?
The hispidin-synthase activity was “had hispidin-synthase activity”.

And the “hispidin-synthase activity, comparison among PKS” value?
Its value is “highest activity”.

B5 was tested. Which hispidin-synthase activity did it give?
Its hispidin-synthase activity is “had hispidin-synthase activity”.

What about the “hispidin-synthase activity, comparison among PKS” value of the same molecule?
Its value is “highest activity”.

What does the source list for B6?
hispidin-synthase activity: had hispidin-synthase activity; hispidin-synthase activity, comparison among PKS: highest activity

With B7 as the molecule, how does the hispidin-synthase activity read?
Its hispidin-synthase activity is “had hispidin-synthase activity”.

How did the hispidin-synthase activity turn out when B8 was run?
The hispidin-synthase activity was “had hispidin-synthase activity”.

B9 was tested. Which hispidin-synthase activity did it give?
Its hispidin-synthase activity is “had hispidin-synthase activity”.

With B10 as the molecule, how does the hispidin-synthase activity read?
Its hispidin-synthase activity is “had hispidin-synthase activity”.
